Results reported in patent publication US20100074886A1, “CCR2 ANTAGONISTS FOR TREATMENT OF FIBROSIS” (priority 2006, published 2010).

Biological target: Human MCP-1 (CCL2), monocyte chemoattractant protein 1 (human), P13500
Assay: cell-based or functional assay

Human MCP-1 (CCL2), monocyte chemoattractant protein 1 (human), P13500, sequence (P13500 24-99): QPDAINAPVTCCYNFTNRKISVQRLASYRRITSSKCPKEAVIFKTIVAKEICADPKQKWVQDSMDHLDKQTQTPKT

B1: CCL2-neutralizing antibody CNTO888 (antibody, V domains shown)
VH: QVQLVQSGAEVKKPGSSVKVSCKASGGTFSSYGISWVRQAPGQGLEWMGGIIPIFGTANYAQKFQGRVTITADESTSTAYMELSSLRSEDTAVYYCARYDGIYGELDFWGQGTLVTVSS
VL: not shown
modifications: not checked
**Q.** How did the CCL2 gene expression in fibrotic cell line 126, percent of untreated cell level (percent of untreated cell level) turn out when B1 was run?
**A.** The CCL2 gene expression in fibrotic cell line 126, percent of untreated cell level (percent of untreated cell level) was 2.

**Q.** And the CXCL5 gene expression in fibrotic cell line 126, percent of untreated cell level (percent of untreated cell level)?
**A.** Its CXCL5 gene expression in fibrotic cell line 126, percent of untreated cell level (percent of untreated cell level) is under 1.

**Q.** What about the CXCL5 protein level in supernatant of fibrotic cell line 126 with Anti-CCL2 of the same binder?
**A.** The CXCL5 protein level in supernatant of fibrotic cell line 126 with Anti-CCL2 was 32.

**Q.** And the CXCL5 protein, percent of untreated (percent of untreated)?
**A.** Its CXCL5 protein, percent of untreated (percent of untreated) is under 1.

**Q.** What about the G-CSF protein level in supernatant of fibrotic cell line 126 with Anti-CCL2 of the same binder?
**A.** The G-CSF protein level in supernatant of fibrotic cell line 126 with Anti-CCL2 was 1.

**Q.** And the G-CSF protein, percent of untreated (percent of untreated)?
**A.** Its G-CSF protein, percent of untreated (percent of untreated) is under 1.

**Q.** And the IL6 gene expression in fibrotic cell line 126, percent of untreated cell level (percent of untreated cell level)?
**A.** The IL6 gene expression in fibrotic cell line 126, percent of untreated cell level (percent of untreated cell level) was under 1.

**Q.** What about the IL6 protein level in supernatant of fibrotic cell line 126 with Anti-CCL2 of the same binder?
**A.** The IL6 protein level in supernatant of fibrotic cell line 126 with Anti-CCL2 was 40.

**Q.** What about the IL6 protein, percent of untreated (percent of untreated) of the same binder?
**A.** Its IL6 protein, percent of untreated (percent of untreated) is under 1.

**Q.** What about the IL8 protein level in supernatant of fibrotic cell line 126 with Anti-CCL2 of the same binder?
**A.** Its IL8 protein level in supernatant of fibrotic cell line 126 with Anti-CCL2 is 308.

**Q.** What about the IL8 protein, percent of untreated (percent of untreated) of the same binder?
**A.** The IL8 protein, percent of untreated (percent of untreated) was 2.

**Q.** And the IL13Ra2 gene expression in fibrotic cell line 126, percent of untreated cell level (percent of untreated cell level)?
**A.** Its IL13Ra2 gene expression in fibrotic cell line 126, percent of untreated cell level (percent of untreated cell level) is 5.

**Q.** What about the VEGF protein level in supernatant of fibrotic cell line 126 with Anti-CCL2 of the same binder?
**A.** Its VEGF protein level in supernatant of fibrotic cell line 126 with Anti-CCL2 is 175.

**Q.** And the VEGF protein, percent of untreated (percent of untreated)?
**A.** Its VEGF protein, percent of untreated (percent of untreated) is 23.

**Q.** What about the fold reduction of G-CSF protein with CNTO 888 of the same binder?
**A.** The fold reduction of G-CSF protein with CNTO 888 was 6800 fold.

**Q.** And the fold reduction of VEGF protein with CNTO 888?
**A.** Its fold reduction of VEGF protein with CNTO 888 is 4 fold.
